Source: doi:10.1101/2020.03.02.974154 (bioRxiv, 2020)

Biological target: the molecule itself
Assay: cryo-EM structure

B1: full-length chicken acid-sensing ion channel 1a (cASIC1a) (natural protein, Gallus gallus, UniProt Q1XA76 1-527, looked up)
chain: MMDLKVDEEEVDSGQPVSIQAFASSSTLHGISHIFSYERLSLKRVVWALCFMGSLALLALVCTNRIQYYFLYPHVTKLDEVAATRLTFPAVTFCNLNEFRFSRVTKNDLYHAGELLALLNNRYEIPDTQTADEKQLEILQDKANFRNFKPKPFNMLEFYDRAGHDIREMLLSCFFRGEQCSPEDFKVVFTRYGKCYTFNAGQDGKPRLITMKGGTGNGLEIMLDIQQDEYLPVWGETDETSFEAGIKVQIHSQDEPPLIDQLGFGVAPGFQTFVSCQEQRLIYLPPPWGDCKATTGDSEFYDTYSITACRIDCETRYLVENCNCRMVHMPGDAPYCTPEQYKECADPALDFLVEKDNEYCVCEMPCNVTRYGKELSMVKIPSKASAKYLAKKYNKSEQYIGENILVLDIFFEALNYETIEQKKAYEVAGLLGDIGGQMGLFIGASILTVLELFDYAYEVIKHRLCRRGKCRKNHKRNNTDKGVALSMDDVKRHNPCESLRGHPAGMTYAANILPHHPARGTFEDFTC
With B1 the “stoichiometry N” value was 3.
